The results in this text go back to patent WO2018183494A1 (dated 2018).

The target of this assay is T1, CD19 (UniProt P15391 20-556, limits assumed).
T1 sequence (looked up): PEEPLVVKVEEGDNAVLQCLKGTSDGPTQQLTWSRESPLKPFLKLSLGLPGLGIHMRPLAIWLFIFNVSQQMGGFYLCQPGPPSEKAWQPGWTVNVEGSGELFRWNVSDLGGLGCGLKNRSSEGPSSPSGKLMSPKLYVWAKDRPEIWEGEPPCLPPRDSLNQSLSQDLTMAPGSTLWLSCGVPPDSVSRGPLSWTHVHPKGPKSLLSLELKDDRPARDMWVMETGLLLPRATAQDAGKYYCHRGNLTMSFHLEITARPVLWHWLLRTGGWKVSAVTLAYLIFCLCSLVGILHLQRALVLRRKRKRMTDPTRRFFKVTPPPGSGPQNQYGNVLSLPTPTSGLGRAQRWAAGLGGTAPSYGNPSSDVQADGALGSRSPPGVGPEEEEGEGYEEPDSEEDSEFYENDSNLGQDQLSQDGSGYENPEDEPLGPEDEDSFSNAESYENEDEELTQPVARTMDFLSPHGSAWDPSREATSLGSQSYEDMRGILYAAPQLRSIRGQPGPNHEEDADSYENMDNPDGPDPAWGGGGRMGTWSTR
Put plainly: cell-based or functional assay.

B1: huB4-DGN462 (antibody, V domains shown)
VH: QVQLVQPGAEVVKPGASVKLSCKTSGYTFTSNWMHWVKQAPGQGLEWIGEIDPSDSYTNYNQNFQGKAKLTVDKSTSTAYMEVSSLRSDDTAVYYCARGSNPYYYAMDYWGQGTSVTVSS
VL: EIVLTQSPAIMSASPGERVTMTCSASSGVNYMHWYQQKPGTSPRRWIYDTSKLASGVPARFSGSGSGTDYSLTISSMEPEDAATYYCHQRGSYTFGGGTKLEIKR
With B1, the “median IC50 of cytotoxic activity (MTT assay, 72 h) in B cell lymphoma cell lines” value stood at 0.1 nM and the “median IC50 of cytotoxic activity (MTT assay, 72 h) in eight T cell-derived lymphomas with lower CD19 expression” value came to 1.75 nM.
